These results are taken from patent US20210253725A1 (BIONTECH, published 2021).

Assay [1] has as its target T1, CD134 expressed on the cell surface of HT1080_OX40 cells (human, UniProt P43489 29-277).
T1 construct: whole, on cells; species not restated for the HT1080 transfectant
T1 sequence (looked up): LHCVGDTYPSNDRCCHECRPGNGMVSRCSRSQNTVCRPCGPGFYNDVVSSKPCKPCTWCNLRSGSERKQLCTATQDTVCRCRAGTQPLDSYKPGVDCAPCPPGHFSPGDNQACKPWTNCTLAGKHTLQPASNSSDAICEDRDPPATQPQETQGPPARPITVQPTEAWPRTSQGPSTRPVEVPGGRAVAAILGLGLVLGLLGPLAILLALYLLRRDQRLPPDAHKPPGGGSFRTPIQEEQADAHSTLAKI
In words: HT1080_OX40 cells, imaging. Further: test concentration or dose not given here.

For assay [2], the target named is T1, CD134 expressed on the cell surface of …. In words: cell-based or functional assay.
The target is the same in assay [3]. In words: cell-based or functional assay. This is another data set of the same source.
In assay [4] the target is T2, CD134 protein (His-tagged, Sino Biological Inc. 10481-H08H) (human, UniProt P43489 29-216).
T2 construct: bought protein coated on ELISA plates; also called OX40; TNFRSF4; not shown: His tag
T2 sequence (looked up): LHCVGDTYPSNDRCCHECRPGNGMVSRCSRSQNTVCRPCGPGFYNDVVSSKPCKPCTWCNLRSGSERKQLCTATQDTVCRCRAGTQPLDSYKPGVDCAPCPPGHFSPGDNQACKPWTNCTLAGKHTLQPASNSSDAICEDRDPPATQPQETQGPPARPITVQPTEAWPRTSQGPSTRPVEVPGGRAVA
In words: ELISA, coated His-tagged CD134. Further: test concentration or dose not given here.
Wherever Functional assay Cross-linked by F(ab′)2 fragment IL-8 is given: test concentration or dose not given here.
Wherever Functional assay IL-8 is given: test concentration or dose not given here.

B1: P018.S.04.A.D06 (antibody, V domains shown)
VH: QSLEESGGDLVKPGASLTLTCTASGFSFSSSYYMCWVRQAPGKGLEWIACIYTGDGASYYASWAKGRFTISKPSSTTVTLQVTSLTAADTATYFCGRGEYDNDWGFGLWGPGTLVTVSS
VL: AYDMTQTPASVEVPVGGTVTINCQASEDISSYLSWYQQKPGQPPELLIYYASNLASGVSSRFKGSRSGTEFTLTISDLESADAATYYCQCSNYGGSWTFGGGTEVVVK
notes: V regions on human Ig constant parts; also called AB134_9
In the case of B1, the “Cellular binding assay [RFU]” value in assay [1] is 510 RFU. For the same molecule, the “EC 50 (IL-8 release, cross-linked)” value in assay [2] is 0.355 µg/mL. Also, in assay [3], the “Functional assay Cross-linked by F(ab′)2 fragment IL-8” value (“Functional assay Cross-linked” below) came out at 2.3 abs. corr and the “Functional assay IL-8” value worked out at 1.01 abs. corr. For the same molecule, the “ELISA [abs. corr.]” value in assay [4] is 2.49 abs. corr.

B2: P018.S.04.A.A06 (antibody, V domains shown)
VH: QSLEESGGRLVTPGTPLTLTCTVSGFSLHNYNIQWVRQAPGKGLEWIGWILTDGSPYCANWAKGRFTISKTSTTVDLKITSPTIEDTATYFCARMGDYNINGLWGPGTLVTVSS
VL: AQVLTQTPSSVSAAVGGTVTINCQSSQRIYNNDFLSWYQQKPGQPPKLLIYAASTLASGVPSRFKGSGSGTQFTLTISDLESDDAATYYCQGGYSSSGWYLPFGGGTEVVVK
notes: V regions on human Ig constant parts; also called AB134_5
B2: the “Cellular binding assay [RFU]” value in assay [1] was found to be 486 RFU. Also, the “EC 50 (IL-8 release, cross-linked)” value in assay [2] is 0.63 µg/mL. In assay [3], the “Functional assay Cross-linked” value came to 2.21 abs. corr and the “Functional assay IL-8” value is 0.879 abs. corr. Also, the “ELISA [abs. corr.]” value in assay [4] was 2.85 abs. corr.

B3: P018.S.04.A.B06 (antibody, V domains shown)
VH: QSVEESGGRLVTPGTFLTLTCTVSGFSLSSYAMNWVRQSPGKGLEWIGIIYSDDIAYYASWAKGRFTISKTSTTVTLKMTSLTVADTATYFCARGDGDRSIWSFDLWGPGTLVTVSS
VL: AQVLTQTPSPVSAAVGGTVTISCQSSESVWNNNWLAWYQQKPGQPPNLLIYEASTLASGVSSRFKGSGSGTQFTLTVSEVQSDDAATYYCQGGYYDSSPIWTFGGGTEVVVK
notes: V regions on human Ig constant parts; also called AB134_7
As to B3, the “Cellular binding assay [RFU]” value in assay [1] was 482 RFU. In addition, the “EC 50 (IL-8 release, cross-linked)” value in assay [2] was 0.461 µg/mL. Further, in assay [3], the “Functional assay Cross-linked” value turned out to be 2.27 abs. corr and the “Functional assay IL-8” value worked out at 1.82 abs. corr. Besides, in assay [4], the “ELISA [abs. corr.]” value is 2.64 abs. corr.

B4: P018.S.11.A.A05 (antibody, V domains shown)
VH: QSVEESGGRLVTPGTPLTLTCTVSGFSLNSYDMSWVRQAPGKGLEWIGFISASGSIYFANWAKGRFTISKTSTTVDLKITSPTTEDTATYFCASDSYGWAYVYYFNLWGPGTLVTVSS
VL: AVVLTQTPASVSAAVGGTVTINCRASEDIGSYLGWYQQKPGQPPKLLMHDASDLASGVPSRFSGSGSGTEFTLTISGVQSDDAATYYCQSAWYSSGTDKMAFGGGTEVVVK
notes: V regions on human Ig constant parts; also called AB134_22
As to B4, the “Cellular binding assay [RFU]” value in assay [1] was 550 RFU. Besides, the “EC 50 (IL-8 release, cross-linked)” value in assay [2] amounted to 0.865 µg/mL. For the same molecule, in assay [3], the “Functional assay Cross-linked” value came out at 2.15 abs. corr and the “Functional assay IL-8” value stood at 0.26 abs. corr. Also, the “ELISA [abs. corr.]” value in assay [4] stood at 1.9 abs. corr.

B5: P018.S.12.A.E04 (antibody, V domains shown)
VH: QSVEESGGRLVTPGTPLTLTCTVSGFSLNSYDMSWVRQAPGKGLEWIGFISASGSIYFANWAKGRFTISKTSTTVDLKITSPTTEDTATYFCASDSYGWAYVYYFNLWGPGTLVTVSS
VL: AVVLTQTPASVSAAVGGTVTINCRASEDVGSYLGWYQQRAGQPPKLLMHDASDLASGVPSRFSGSGSGTEFTLTISGVQSDDAATYYCQSAWLGTNTDKMAFGGGTEVVVK
notes: V regions on human Ig constant parts; also called AB134_75
Take B5: in assay [1], the “Cellular binding assay [RFU]” value was found to be 659 RFU. Further, the “EC 50 (IL-8 release, cross-linked)” value in assay [2] amounted to 1.01 µg/mL. Further, in assay [3], the “Functional assay Cross-linked” value was determined as 2.23 abs. corr and the “Functional assay IL-8” value was 0.455 abs. corr. In assay [4], the “ELISA [abs. corr.]” value came out at 2.21 abs. corr.

B6: P018.S.04.A.E06 (antibody, V domains shown)
VH: QSVEESGGRLVTPGTPLTLTCTVSGFSLSGYDMSWVRQAPGKGLEWIGYIYAGSTYYANWAKGRFTISKTSTTVDLKMTSPTTEDTATYFCTRVGAGYSGVWAYFNLWGPGTLVTVSS
VL: AQVLTQTPSSVSAAVGGTVTINCQSSQSVDSDNYLAWYQQKPGQPPKLLIYDASKLASGVPSRFTGSGSGTQFTLTISGVQSDDAATYYCQGTYGNIGWYFAFGGGTEVVVK
notes: V regions on human Ig constant parts; also called AB134_11
Take B6: the “Cellular binding assay [RFU]” value in assay [1] was 140 RFU. In assay [2], the “EC 50 (IL-8 release, cross-linked)” value was 1.39 µg/mL. Moreover, in assay [3], the “Functional assay Cross-linked” value stood at 2.38 abs. corr and the “Functional assay IL-8” value was 0.135 abs. corr. Also, the “ELISA [abs. corr.]” value in assay [4] turned out to be 0.206 abs. corr.
